Data published in paper doi:10.1101/2025.02.22.639503 (bioRxiv, 2025).
Several values for one entry are separate records, joined by “and”; a condition that tells them apart may be missing. Equal values may be shown once.

B1: HSV-1 terminase subunit pUL15 (His-pUL15) (natural protein)
chain: MFGQQLASDVQQYLERLEKQRQLKVGADEASAGLTMGGDALRVPFLDFATATPKRHQTVVPGVGTLHDCCEHSPLFSAVARRLLFNSLVPAQLKGRDFGGDHTAKLEFLAPELVRAVARLRFKECAPADVVPQRNAYYSVLNTFQALHRSEAFRQLVHFVRDFAQLLKTSFRASSLTETTGPPKKRAKVDVATHGRTYGTLELFQKMILMHATYFLAAVLLGDHAEQVNTFLRLVFEIPLFSDAAVRHFRQRATVFLVPRRHGKTWFLVPLIALSLASFRGIKIGYTAHIRKATEPVFEEIDACLRGWFGSARVDHVKGETISFSFPDGSRSTIVFASSHNTNGIRGQDFNLLFVDEANFIRPDAVQTIMGFLNQANCKIIFVSSTNTGKASTSFLYNLRGAADELLNVVTYICDDHMPRVVTHTNATACSCYILNKPVFITMDGAVRRTADLFLADSFMQEIIGGQARETGDDRPVLTKSAGERFLLYRPSTTTNSGLMAPDLYVYVDPAFTANTRASGTGVAVVGRYRDDYIIFALEHFFLRALTGSAPADIARCVVHSLTQVLALHPGAFRGVRVAVEGNSSQDSAVAIATHVHTEMHRLLASEGADAGSGPELLFYHCEPPGSAVLYPFFLLNKQKTPAFEHFIKKFNSGGVMASQEIVSATVRLQTDPVEYLLEQLNNLTETVSPNTDVRTYSGKRNGASDDLMVAVIMAIYLAAQAGPPHTFAPITRVS
B2: HSV-1 terminase heterotrimer (pUL15, pUL28, pUL33) (complex)
chain 1: B1 chain
chain 2: MAAPVSEPTVARQKLLALLGQVQTYVFQIELLRRCDPHIGRGKLPQLKLNALQVRALRRRLRPGLEAQAGAFLTPLSVTLELLLEYAWREGERLLGSLETFATAGDVAAFFTETMGLARPCPYHQRVRLDTYGGTVHMELCFLHDVENFLKQLNYCHLITPSRGATAALERVREFMVGAVGSGLIVPPELSDPSHPCAVCFEELCVTANQGATIARRLADRICNHVTQQAQVRLDANELRRYLPHAAGLSDADRARALSVLDHALARTAGGDGQPHPSPENDSVRKEADALLEAHDVFQATTPGLYAISELRFWLASGDRAGQTTMDAFASNLTALARRELQQETAAVAVELALFGRRAEHFDRAFGSHLAALDMVDALIIGGQATSPDDQIEALIRACYDHHLTTPLLRRLVSPEQCDEEALRRVLARMGAGGAADAPKGGAGPDDDGDRVAVEEGARGLGAPGGGGEDEDRRRGPGGQGPETWGDIATQAAADVRERRRLYADRLTKRSLASLGRCVREQRGELEKMLRVSVHGEVLPATFAAVANGFAARARFCALTAGAGTVIDNRSAPGVFDAHRFMRASLLRHQVDPALLPSITHRFFELVNGPLFDHSTHSFAQPPNTALYYSVENVGLLPHLKEELARFIMGAGGSGADWAVSEFQRFYCFDGISGITPTQRAAWRYIRELIIATTLFASVYRCGELELRRPDCSRPTSEGRYRYPPGVYLTYDSDCPLVAIVESAPDGCIGPRSVVVYDRDVFSILYSVLQHLAPRLPDGGHDGPP
chain 3: MAGREGRTRQRTLRDTIPDCALRSQTLESLDARYVSRDGAHDAAVWFEDMTPAELEVVFPTTDAKLNYLSRTQRLASLLTYAGPIKAPDDAAAPQTPDTACVHGELLAAKRERFAAVINRFLDLHQILRG
B3: HSV-1 terminase subunit pUL33 (natural protein)
chain: B2 chain 3

Legend:
Experiment in all cases: native MS
[1] = target: Alcohol Dehydrogenase from Saccharomyces cerevisiae (Saccharomyces cerevisiae) (UniProt P00330)
[2] = target: HSV-1 terminase-associated protein pUL32 (Strep-pUL32) (herpes simplex virus 1 (HSV-1)) (UniProt P10216)
[3] = target: KSHV (HHV-8) pORF68 (TwinStrep-ORF68) (human herpesvirus 8 (KSHV HHV-8))
[4] = target: T1, HSV-1 terminase subunit pUL28 (herpes simplex virus 1 (HSV-1, strain …, UniProt P10212 1-785))
T1 sequence: B2 chain 2

native MS = target: the molecule itself
[5] = target: B1

Molecule: Alcohol Dehydrogenase from Saccharomyces cerevisiae (from UniProt P00330 1-348) (enzyme)
- stoichiometry N [1]: 4

Molecule: HSV-1 terminase-associated protein pUL32 (Strep-pUL32) (from UniProt P10216 1-596) (natural protein)
- stoichiometry N [2]: 3

Molecule: KSHV (HHV-8) pORF68 (TwinStrep-ORF68) (natural protein)
- stoichiometry N [3]: 10

Molecule: B1
- binding result [4]: binds

Molecule: B2
- stoichiometry N (native MS): 2 and 3

Molecule: B3
- binding result [5]: binds
